{
  "source": "patent US20110306057A1",
  "about": "(Dana-Farber, published 2011)",
  "binders": {"B1": {"name": "HA-tagged RalA S11A mutant (enzyme, not shown: small tags and cut ends)", "chain": "MAANKPKGQNALALHKVIMVGSGGVGKSALTLQFMYDEFVEDYEPTKADSYRKKVVLDGEEVQIDILDTAGQEDYAAIRDNYFRSGEGFLCVFSITEMESFAATADFREQILRVKEDENVPFLLVGNKSDLEDKRQVSVEEAKNRAEQWNVNYVETSAKTRANVDKVFFDLMREIRARKMEDSKEKNGKKKRKSLAKRIRERC", "notes": "also called S11A RalA mutant"}, "B2": {"name": "PP2A regulatory subunit B55α (other, UniProt P63151 2-447, looked up)", "chain": "AGAGGGNDIQWCFSQVKGAVDDDVAEADIISTVEFNHSGELLATGDKGGRVVIFQQEQENKIQSHSRGEYNVYSTFQSHEPEFDYLKSLEIEEKINKIRWLPQKNAAQFLLSTNDKTIKLWKISERDKRPEGYNLKEEDGRYRDPTTVTTLRVPVFRPMDLMVEASPRRIFANAHTYHINSISINSDYETYLSADDLRINLWHLEITDRSFNIVDIKPANMEELTEVITAAEFHPNSCNTFVYSSSKGTIRLCDMRASALCDRHSKLFEEPEDPSNRSFFSEIISSISDVKFSHSGRYMMTRDYLSVKIWDLNMENRPVETYQVHEYLRSKLCSLYENDCIFDKFECCWNGSDSVVMTGSYNNFFRMFDRNTKRDITLEASRENNKPRTVLKPRKVCASGKRKKDEISVDSLDFNKKILHTAWHPKENIIAVATTNNLYIFQDKVN", "notes": "Endogenous protein found in anti-FLAG immune complexes by immunoblot"}, "B3": {"name": "HA-tagged wild-type RalA (enzyme, not shown: small tags and cut ends)", "chain": "B1 chain with A11S", "notes": "phosphorylation state not separated; also called HA-tagged RalA; HA-RalA"}, "B4": {"name": "wild type (WT) FLAG epitope-tagged version of PP2A Aβ (other, UniProt P30154 1-601, looked up, not shown: small tags and cut ends)", "chain": "MAGASELGTGPGAAGGDGDDSLYPIAVLIDELRNEDVQLRLNSIKKLSTIALALGVERTRSELLPFLTDTIYDEDEVLLALAEQLGNFTGLVGGPDFAHCLLPPLENLATVEETVVRDKAVESLRQISQEHTPVALEAYFVPLVKRLASGDWFTSRTSACGLFSVCYPRASNAVKAEIRQQFRSLCSDDTPMVRRAAASKLGEFAKVLELDSVKSEIVPLFTSLASDEQDSVRLLAVEACVSIAQLLSQDDLETLVMPTLRQAAEDKSWRVRYMVADRFSELQKAMGPKITLNDLIPAFQNLLKDCEAEVRAAAAHKVKELGENLPIEDRETIIMNQILPYIKELVSDTNQHVKSALASVIMGLSTILGKENTIEHLLPLFLAQLKDECPDVRLNIISNLDCVNEVIGIRQLSQSLLPAIVELAEDAKWRVRLAIIEYMPLLAGQLGVEFFDEKLNSLCMAWLVDHVYAIREAATNNLMKLVQKFGTEWAQNTIVPKVLVMANDPNYLHRMTTLFCINALSEACGQEITTKQMLPIVLKMAGDQVANVRFNVAKSLQKIGPILDTNALQGEVKPVLQKLGQDEDMDVKYFAQEAISVLALA", "notes": "also called wtPP2A Aβ; FLAG-tagged Aβ"}, "B5": {"name": "cancer-derived FLAG-tagged PP2A Aβ mutant K343E (other, UniProt P30154 1-601, looked up, not shown: small tags and cut ends)", "chain": "B4 chain with K343E", "notes": "Overexpressed in HEK TER cells"}, "B6": {"name": "cancer-derived FLAG-tagged PP2A Aβ mutant L101P/V448A (other, UniProt P30154 1-601, looked up, not shown: small tags and cut ends)", "chain": "B4 chain with L101P, V448A", "notes": "as for B5"}, "B7": {"name": "cancer-derived FLAG-tagged PP2A Aβ mutant V448A (other, UniProt P30154 1-601, looked up, not shown: small tags and cut ends)", "chain": "B4 chain with V448A", "notes": "as for B5"}, "B8": {"name": "cancer-derived FLAG-tagged PP2A Aβ mutant V545A (other, UniProt P30154 1-601, looked up, not shown: small tags and cut ends)", "chain": "B4 chain with V545A", "notes": "as for B5"}, "B9": {"name": "cancer-derived FLAG-tagged PP2A Aβ mutant G8R (other, UniProt P30154 1-601, looked up, not shown: small tags and cut ends)", "chain": "B4 chain with G8R", "notes": "Overexpressed in HEK TER cells; the shRNA-resistant form carries silent substitutions only; also called G8R Aβ mutant"}, "B10": {"name": "cancer-derived FLAG-tagged PP2A Aβ mutant P65S (other, UniProt P30154 1-601, looked up, not shown: small tags and cut ends)", "chain": "B4 chain with P65S", "notes": "as for B5"}, "B11": {"name": "cancer-derived FLAG-tagged PP2A Aβ mutant L101P (other, UniProt P30154 1-601, looked up, not shown: small tags and cut ends)", "chain": "B4 chain with L101P", "notes": "as for B5"}, "B12": {"name": "cancer-derived FLAG-tagged PP2A Aβ mutant D504G (other, UniProt P30154 1-601, looked up, not shown: small tags and cut ends)", "chain": "B4 chain with D504G", "notes": "as for B5"}, "B13": {"name": "GST-tagged SV40 small t antigen (ST) (other)", "chain": "MDKVLNREESLQLMDLLGLERSAWGNIPLMRKAYLKKCKEFHPDKGGDEEKMKKMNTLYKKMEDGVKYAHQPDFGGFWDATEVFASSLNPGVDAMYCKQWPECAKKMSANCICLLCLLRMKHENRKLYRKDPLVWVDCYCFDCFRMWFGLDLCEGTLLLWCDIIGQTTYRDLKL", "notes": "also called GST-tagged ST; SV40 ST; not shown: GST tag"}, "B14": {"name": "cancer-derived FLAG-tagged PP2A Aβ mutant ΔE344-E388 (other)", "chain": "MDYKDDDDKAGASELGTGPGAAGGDGDDSLYPIAVLIDELRNEDVQLRLNSIKKLSTIALALGVERTRSELLPFLTDTIYDEDEVLLALAEQLGNFTGLVGGPDFAHCLLPPLENLATVEETVVRDKAVESLRQISQEHTPVALEAYFVPLVKRLASGDWFTSRTSACGLFSVCYPRASNAVKAEIRQQFRSLCSDDTPMVRRAAASKLGEFAKVLELDSVKSEIVPLFTSLASDEQDSVRLLAVEACVSIAQLLSQDDLETLVMPTLRQAAEDKSWRVRYMVADRFSELQKAMGPKITLNDLIPAFQNLLKDCEAEVRAAAAHKVKELGENLPIEDRETIIMNQILPYIKCPDVRLNIISNLDCVNEVIGIRQLSQSLLPAIVELAEDAKWRVRLAIIEYMPLLAGQLGVEFFDEKLNSLCMAWLVDHVYAIREAATNNLMKLVQKFGTEWAQNTIVPKVLVMANDPNYLHRMTTLFCINALSEACGQEITTKQMLPIVLKMAGDQVANVRFNVAKSLQKIGPILDTNALQGEVKPVLQKLGQDEDMDVKYFAQEAISVLALA", "notes": "Deletion of exon 9, in-frame deletion of 45 amino acids; Overexpressed in HEK TER cells; also called D344-388"}},
  "note": "Numbering of substitutions follows the chain as printed. In names and notes the source's numbering stands.",
  "data": [
    {"biological_target": "B4", "experiment": "anti-FLAG agarose co-IP from 293T cells, immunoblot", "method": "(A) Immunoblot showing phosphorylated RalA and total RalA levels in HEK TER cells expressing shGFP or shAβ. Immunoprecipitations were performed using a phosphoserine antibody. Immunoblotting was performed using anti-Ral-antibody. WCL=whole cell lysate. (B) Immunoblot showing interaction between Aβ and RalA mutants.\nTo determine if these newly identified serine residues were the target of Aβ-containing PP2A complexes, we replaced each of these three serine residues with alanine using site-directed mutagenesis to generate HA-tagged S11A, S183A and S194A RalA mutants. […] We then determined whether these RalA mutants retained the ability to bind Aβ, as follows. Briefly, Aβ-specific complexes were isolated using anti-FLAG agarose followed by immunoblotting using FLAG or RalA specific antibodies.", "values": [
      {"binder": "B1", "binding result": "binds"}
    ]},
    {"biological_target": "B4", "experiment": "anti-FLAG co-IP from HEK TER cells, immunoblot", "values": [
      {"binder": "B2", "binding result": "binds"}
    ]},
    {"biological_target": "B4", "experiment": "reciprocal co-IP (anti-HA, anti-FLAG agarose) from 293T cells, immunoblot", "method": "HA-tagged wild-type RalA were generated in the retroviral vectors pPs-neo and pBabe-puro. […] The supernatants from the first immunoprecipitation were sequentially incubated with anti-FLAG-agarose (M2), or anti-HA-agarose (HA7) in reciprocal manner. […] Densitometry analysis was performed by using Scion Image Software.", "values": [
      {"binder": "B3", "binding result": "binds"}
    ]},
    {"biological_target": "T1, PP2A regulatory subunit B56ε (human (endogenous in human HEK TER …, UniProt Q16537 2-467, limits assumed))", "T1 construct": "Endogenous protein found in anti-FLAG immune complexes by immunoblot", "T1 sequence (Q16537 2-467 limits assumed)": "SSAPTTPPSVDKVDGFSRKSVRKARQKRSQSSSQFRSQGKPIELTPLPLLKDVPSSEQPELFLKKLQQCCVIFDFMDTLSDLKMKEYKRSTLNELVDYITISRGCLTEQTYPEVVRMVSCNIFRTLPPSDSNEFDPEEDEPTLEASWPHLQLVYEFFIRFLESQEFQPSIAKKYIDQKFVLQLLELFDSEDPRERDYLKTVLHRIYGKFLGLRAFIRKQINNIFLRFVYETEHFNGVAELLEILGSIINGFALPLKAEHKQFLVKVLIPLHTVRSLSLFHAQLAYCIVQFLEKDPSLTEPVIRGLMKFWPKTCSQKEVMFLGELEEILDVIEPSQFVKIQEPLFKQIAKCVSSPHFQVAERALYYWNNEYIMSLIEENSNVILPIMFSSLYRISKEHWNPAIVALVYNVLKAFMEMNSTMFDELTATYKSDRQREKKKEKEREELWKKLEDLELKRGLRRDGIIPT", "experiment": "anti-FLAG co-IP from HEK TER cells, immunoblot, densitometry; +++ >90%, ++ 50-90%, + <50%", "units": {"binding level (percent, co-immunoprecipitation densitometry)": "%"}, "values": [
      {"binder": "B4", "binding level (percent, co-immunoprecipitation densitometry)": "> 90"},
      {"binder": "B5", "binding level (percent, co-immunoprecipitation densitometry)": "50 to 90"},
      {"binder": "B6", "binding level (percent, co-immunoprecipitation densitometry)": "< 50"},
      {"binder": "B7", "binding level (percent, co-immunoprecipitation densitometry)": "< 50"},
      {"binder": "B8", "binding level (percent, co-immunoprecipitation densitometry)": "< 50"},
      {"binder": "B9", "binding level (percent, co-immunoprecipitation densitometry)": "> 90"},
      {"binder": "B10", "binding level (percent, co-immunoprecipitation densitometry)": "> 90"},
      {"binder": "B11", "binding level (percent, co-immunoprecipitation densitometry)": "> 90"},
      {"binder": "B12", "binding level (percent, co-immunoprecipitation densitometry)": "> 90"}
    ]},
    {"biological_target": "T2, PP2A regulatory subunit B56α (human (endogenous in human HEK TER …, UniProt Q15172 2-486, limits assumed))", "T2 construct": "Endogenous protein found in anti-FLAG immune complexes by immunoblot", "T2 sequence (Q15172 2-486 limits assumed)": "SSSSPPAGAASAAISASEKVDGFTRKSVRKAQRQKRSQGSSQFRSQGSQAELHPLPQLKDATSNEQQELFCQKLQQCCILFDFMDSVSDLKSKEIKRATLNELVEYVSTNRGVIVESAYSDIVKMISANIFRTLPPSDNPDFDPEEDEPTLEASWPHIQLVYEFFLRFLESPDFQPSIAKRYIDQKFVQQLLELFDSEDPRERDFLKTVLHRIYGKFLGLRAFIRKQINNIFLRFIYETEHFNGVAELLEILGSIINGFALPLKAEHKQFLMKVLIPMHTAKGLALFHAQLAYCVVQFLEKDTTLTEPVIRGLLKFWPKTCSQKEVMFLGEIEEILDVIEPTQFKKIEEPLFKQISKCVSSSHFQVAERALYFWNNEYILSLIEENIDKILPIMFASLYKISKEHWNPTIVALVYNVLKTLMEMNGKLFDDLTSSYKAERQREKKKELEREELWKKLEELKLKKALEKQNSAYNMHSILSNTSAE", "experiment": "anti-FLAG co-IP from HEK TER cells, immunoblot, densitometry; +++ >90%, ++ 50-90%, + <50%", "units": {"binding level (percent, co-immunoprecipitation densitometry)": "%"}, "values": [
      {"binder": "B4", "binding level (percent, co-immunoprecipitation densitometry)": "> 90"},
      {"binder": "B5", "binding level (percent, co-immunoprecipitation densitometry)": "< 50"},
      {"binder": "B8", "binding level (percent, co-immunoprecipitation densitometry)": "< 50"},
      {"binder": "B9", "binding level (percent, co-immunoprecipitation densitometry)": "> 90"},
      {"binder": "B10", "binding level (percent, co-immunoprecipitation densitometry)": "< 50"},
      {"binder": "B12", "binding level (percent, co-immunoprecipitation densitometry)": "> 90"}
    ]},
    {"biological_target": "B2", "experiment": "anti-FLAG co-IP from HEK TER cells, immunoblot, densitometry; +++ >90%, ++ 50-90%, + <50%", "units": {"binding level (percent, co-immunoprecipitation densitometry)": "%"}, "values": [
      {"binder": "B4", "binding level (percent, co-immunoprecipitation densitometry)": "> 90"},
      {"binder": "B5", "binding level (percent, co-immunoprecipitation densitometry)": "50 to 90"},
      {"binder": "B7", "binding level (percent, co-immunoprecipitation densitometry)": "< 50"},
      {"binder": "B8", "binding level (percent, co-immunoprecipitation densitometry)": "> 90"},
      {"binder": "B9", "binding level (percent, co-immunoprecipitation densitometry)": "> 90"},
      {"binder": "B10", "binding level (percent, co-immunoprecipitation densitometry)": "> 90"},
      {"binder": "B11", "binding level (percent, co-immunoprecipitation densitometry)": "< 50"},
      {"binder": "B12", "binding level (percent, co-immunoprecipitation densitometry)": "50 to 90"}
    ]},
    {"biological_target": "T3, PP2A regulatory subunit B56γ (human (endogenous in human HEK TER …, UniProt Q13362 1-524))", "T3 sequence (Q13362 whole entry)": "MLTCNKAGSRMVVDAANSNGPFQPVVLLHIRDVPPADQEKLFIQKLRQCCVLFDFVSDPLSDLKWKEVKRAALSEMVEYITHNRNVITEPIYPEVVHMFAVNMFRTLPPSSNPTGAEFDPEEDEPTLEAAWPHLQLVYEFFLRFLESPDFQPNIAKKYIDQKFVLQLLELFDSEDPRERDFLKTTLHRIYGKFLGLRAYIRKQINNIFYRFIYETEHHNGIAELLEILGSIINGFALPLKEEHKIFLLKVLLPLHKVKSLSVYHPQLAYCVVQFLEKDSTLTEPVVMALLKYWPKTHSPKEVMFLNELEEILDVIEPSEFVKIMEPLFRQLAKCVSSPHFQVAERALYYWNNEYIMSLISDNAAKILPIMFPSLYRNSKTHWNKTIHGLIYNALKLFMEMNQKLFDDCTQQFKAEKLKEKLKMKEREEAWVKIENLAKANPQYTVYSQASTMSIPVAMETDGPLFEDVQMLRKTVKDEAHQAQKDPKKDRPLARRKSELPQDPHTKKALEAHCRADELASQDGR", "experiment": "anti-FLAG co-IP from HEK TER cells, immunoblot, densitometry; +++ >90%, ++ 50-90%, + <50%", "units": {"binding level (percent, co-immunoprecipitation densitometry)": "%"}, "values": [
      {"binder": "B9", "binding level (percent, co-immunoprecipitation densitometry)": "< 50"},
      {"binder": "B10", "binding level (percent, co-immunoprecipitation densitometry)": "< 50"}
    ]},
    {"biological_target": "T4, PP2A catalytic subunit Cα (human (endogenous in human HEK TER or …, UniProt P67775 1-309))", "T4 construct": "Endogenous protein found in anti-FLAG immune complexes by immunoblot or mass spectroscopy; also called PP2A catalytic Cα", "T4 sequence (P67775 whole entry)": "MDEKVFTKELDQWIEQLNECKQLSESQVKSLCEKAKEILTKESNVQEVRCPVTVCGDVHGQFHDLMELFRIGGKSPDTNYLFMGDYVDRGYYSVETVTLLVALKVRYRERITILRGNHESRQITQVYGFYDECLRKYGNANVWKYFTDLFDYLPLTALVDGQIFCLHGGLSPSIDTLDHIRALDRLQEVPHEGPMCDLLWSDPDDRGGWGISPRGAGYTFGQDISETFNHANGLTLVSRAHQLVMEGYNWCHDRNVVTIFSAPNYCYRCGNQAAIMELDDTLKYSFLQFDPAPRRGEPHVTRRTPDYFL", "experiment": "anti-FLAG co-IP from HEK TER cells, immunoblot, densitometry; +++ >90%, ++ 50-90%, + <50%", "units": {"binding level (percent, co-immunoprecipitation densitometry)": "%"}, "values": [
      {"binder": "B4", "binding level (percent, co-immunoprecipitation densitometry)": "> 90"},
      {"binder": "B5", "binding level (percent, co-immunoprecipitation densitometry)": "< 50"},
      {"binder": "B8", "binding level (percent, co-immunoprecipitation densitometry)": "< 50"},
      {"binder": "B9", "binding level (percent, co-immunoprecipitation densitometry)": "50 to 90"},
      {"binder": "B10", "binding level (percent, co-immunoprecipitation densitometry)": "50 to 90"},
      {"binder": "B12", "binding level (percent, co-immunoprecipitation densitometry)": "< 50"}
    ]},
    {"biological_target": "B4", "experiment": "GST pull-down with glutathione-agarose from 293T lysates, immunoblot", "values": [
      {"binder": "B13", "binding result": "no binding"}
    ]},
    {"biological_target": "T3, PP2A regulatory subunit B56γ", "experiment": "anti-FLAG co-IP from HEK TER cells, immunoblot, densitometry", "values": [
      {"binder": "B14", "binding result": "no binding"},
      {"binder": "B5", "binding result": "no binding"},
      {"binder": "B6", "binding result": "no binding"},
      {"binder": "B7", "binding result": "no binding"},
      {"binder": "B8", "binding result": "no binding"},
      {"binder": "B11", "binding result": "no binding"},
      {"binder": "B12", "binding result": "no binding"}
    ]},
    {"biological_target": "B14", "experiment": "anti-FLAG co-IP from HEK TER cells, immunoblot, densitometry", "values": [
      {"binder": "B2", "binding result": "no binding"}
    ]},
    {"biological_target": "B6", "experiment": "anti-FLAG co-IP from HEK TER cells, immunoblot, densitometry", "values": [
      {"binder": "B2", "binding result": "no binding"}
    ]}
  ]
}
